Results from article doi:10.1101/2022.08.12.503727.

Biological target: T1, RBP45d (Arabidopsis thaliana, UniProt Q8VXZ9 1-425)
T1 sequence: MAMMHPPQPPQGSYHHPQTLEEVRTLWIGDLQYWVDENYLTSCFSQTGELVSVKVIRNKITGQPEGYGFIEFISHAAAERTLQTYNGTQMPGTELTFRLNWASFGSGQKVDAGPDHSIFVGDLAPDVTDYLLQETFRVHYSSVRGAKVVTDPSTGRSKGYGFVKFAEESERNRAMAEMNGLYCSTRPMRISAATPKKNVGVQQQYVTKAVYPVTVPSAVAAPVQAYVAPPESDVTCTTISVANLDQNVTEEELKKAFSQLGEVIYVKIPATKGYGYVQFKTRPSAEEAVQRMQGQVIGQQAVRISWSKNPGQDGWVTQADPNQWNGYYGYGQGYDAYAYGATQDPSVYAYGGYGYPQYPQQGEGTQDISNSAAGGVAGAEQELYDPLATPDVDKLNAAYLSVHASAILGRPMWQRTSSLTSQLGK
Assay: EMSA

GUUUUGUUCGGUUUUGGUUUAGAUUUUUG (ssRNA) [Cy5-LPD1-IN2]: binds.
